Data set [1] addresses CPSF complex (CPSF73-3xFlag immunopurified) (human? (HEK293), UniProt Q10570;Q9C0J8;Q9P2I0;Q9UKF6;Q6UN15;O95639;Q92797 …). In words: EMSA. A general note: In EMSA bound probe runs differently from free probe, usually more slowly.
For another data set, the target named is Flag-CPSF30 full length (UniProt O95639-2 1-244). Description: UV cross-linking.
Data set [2] has as its target Flag-CPSF30 (baculovirus) (UniProt O95639-2 1-244). In words: UV cross-linking.
Data set [3] has as its target CPSF complex with HA-CPSF30 full length (human? (HEK293), UniProt Q10570;Q9C0J8;Q9P2I0;Q9UKF6;Q6UN15;O95639-2;Q92797 …). In words: UV cross-linking.
Data set [4] concerns the target T1, CPSF30 (within CPSF complex) (human? (HEK293), UniProt O95639 1-269). Description: UV cross-linking.
Data set [5] addresses T2, Wdr33 (within CPSF complex) (human? (HEK293), UniProt Q9C0J8 1-1336).
T2 sequence: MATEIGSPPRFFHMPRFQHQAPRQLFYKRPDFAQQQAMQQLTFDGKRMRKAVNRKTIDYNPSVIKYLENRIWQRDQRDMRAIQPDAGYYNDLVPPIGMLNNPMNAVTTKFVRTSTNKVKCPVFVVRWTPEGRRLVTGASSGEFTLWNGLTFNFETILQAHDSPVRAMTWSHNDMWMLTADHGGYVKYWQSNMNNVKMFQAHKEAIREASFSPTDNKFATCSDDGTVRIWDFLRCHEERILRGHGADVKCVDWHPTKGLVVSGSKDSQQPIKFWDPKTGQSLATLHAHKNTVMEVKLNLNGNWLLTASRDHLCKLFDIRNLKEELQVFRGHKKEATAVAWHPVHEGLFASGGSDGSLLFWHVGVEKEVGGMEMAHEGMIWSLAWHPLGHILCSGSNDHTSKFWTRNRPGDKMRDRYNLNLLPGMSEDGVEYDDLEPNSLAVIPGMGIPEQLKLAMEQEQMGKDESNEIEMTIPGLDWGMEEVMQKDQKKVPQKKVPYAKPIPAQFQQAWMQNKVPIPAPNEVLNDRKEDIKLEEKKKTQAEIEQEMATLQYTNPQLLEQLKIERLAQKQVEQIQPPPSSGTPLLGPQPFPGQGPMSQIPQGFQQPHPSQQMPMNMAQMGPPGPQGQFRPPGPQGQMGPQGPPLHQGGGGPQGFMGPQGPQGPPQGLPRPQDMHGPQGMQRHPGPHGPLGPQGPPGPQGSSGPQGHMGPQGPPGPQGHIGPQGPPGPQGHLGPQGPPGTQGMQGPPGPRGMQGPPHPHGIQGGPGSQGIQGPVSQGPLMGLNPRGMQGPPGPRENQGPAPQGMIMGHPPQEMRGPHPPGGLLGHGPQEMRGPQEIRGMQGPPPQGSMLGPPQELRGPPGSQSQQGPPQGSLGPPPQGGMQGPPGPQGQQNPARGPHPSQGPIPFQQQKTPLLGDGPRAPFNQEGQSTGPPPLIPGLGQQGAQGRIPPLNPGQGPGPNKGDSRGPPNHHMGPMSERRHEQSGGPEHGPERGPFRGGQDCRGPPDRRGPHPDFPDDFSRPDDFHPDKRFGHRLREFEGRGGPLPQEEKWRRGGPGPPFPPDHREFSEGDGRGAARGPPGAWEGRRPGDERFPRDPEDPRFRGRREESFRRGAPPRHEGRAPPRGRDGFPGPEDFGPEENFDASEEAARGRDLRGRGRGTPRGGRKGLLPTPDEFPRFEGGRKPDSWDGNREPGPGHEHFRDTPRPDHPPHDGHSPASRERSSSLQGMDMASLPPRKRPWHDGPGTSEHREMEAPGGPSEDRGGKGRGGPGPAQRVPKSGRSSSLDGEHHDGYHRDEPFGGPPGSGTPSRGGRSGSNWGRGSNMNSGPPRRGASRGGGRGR
Description: UV cross-linking.

Data set [6] addresses T1, CPSF30 (within CPSF complex). In words: UV cross-linking, RNase, IP.
Data set [7] concerns the target T3, Fip1 (within CPSF complex) (human? (HEK293), UniProt Q6UN15 1-594).
T3 sequence: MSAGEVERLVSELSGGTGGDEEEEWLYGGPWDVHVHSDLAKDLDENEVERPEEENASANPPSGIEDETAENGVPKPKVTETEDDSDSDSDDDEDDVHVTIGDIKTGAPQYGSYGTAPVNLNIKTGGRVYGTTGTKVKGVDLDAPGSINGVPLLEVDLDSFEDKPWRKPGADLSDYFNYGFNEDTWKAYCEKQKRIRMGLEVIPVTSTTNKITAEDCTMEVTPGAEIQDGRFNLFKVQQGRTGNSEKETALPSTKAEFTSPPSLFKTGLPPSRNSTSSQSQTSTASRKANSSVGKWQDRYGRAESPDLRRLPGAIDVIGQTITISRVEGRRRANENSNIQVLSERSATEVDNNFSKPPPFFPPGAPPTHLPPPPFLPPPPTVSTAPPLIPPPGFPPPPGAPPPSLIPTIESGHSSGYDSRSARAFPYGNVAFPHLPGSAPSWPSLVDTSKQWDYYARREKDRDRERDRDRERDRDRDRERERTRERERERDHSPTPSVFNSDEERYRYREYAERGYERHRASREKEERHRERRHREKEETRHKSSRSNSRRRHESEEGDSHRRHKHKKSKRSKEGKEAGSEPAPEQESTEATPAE
Description: UV cross-linking, RNase I, IP.

Data set [8] addresses T2, Wdr33 (within CPSF complex). Description: UV cross-linking, RNase, IP.

B1: SVL wild type (ssRNA)
RNA: CUGCAAUAAACAAGUUAA
Turning to B1, the binding result (in [1]; in the data set with Flag-CPSF30 full length; in data set [2]; in [3]) was “binds” in each case.

B2: SVL mutant (AAGAAA) (ssRNA)
RNA: CUGCAAGAAACAAGUUAA
For B2, the binding result in data set [1] is reported as “no binding”.

B3: L3 mutant (AAUAAC) (ssRNA)
RNA: AUGUACUAGGAGACACAAUAACGGCAAUGUUUUUAUUUGUA
With B3, the binding result in data set [4] and in data set [5] was “no binding” in each case.

B4: L3 wild type (ssRNA)
RNA: AUGUACUAGGAGACACAAUAAAGGCAAUGUUUUUAUUUGUA
B4: the binding result in data set [6], in data set [7] and in [8] was “binds” throughout.

The values are drawn from PMC4215182.
